Laboratory results reported in publication PMC6150197, “NeoBOMB1, a GRPR-Antagonist for Breast Cancer Theragnostics: First Results of a Preclinical Study with [^67Ga]NeoBOMB1 in T-47D Cells and Tumor-Bearing Mice” (Molecules : A Journal of Synthetic Chemistry and Natural …, 2017).
Where two headings read alike, the source gives them in different places. Square brackets hold non-standard residues; d marks the D form. * marks the point of attachment. DOTA = O=C(O)CN1CCN(CC(=O)O)CCN(CC(=O)*)CCN(CC(=O)O)CC1

Biological target: T1, GRPR (Homo sapiens, UniProt P30550)
T1 construct: Human ductal breast carcinoma T-47D cells endogenously expressing the GRPR were used in all biological assays; endogenous in cells; host or cells: T-47D human ductal breast carcinoma cells (live, adherent, 4 °C)
T1 sequence (P30550 whole entry): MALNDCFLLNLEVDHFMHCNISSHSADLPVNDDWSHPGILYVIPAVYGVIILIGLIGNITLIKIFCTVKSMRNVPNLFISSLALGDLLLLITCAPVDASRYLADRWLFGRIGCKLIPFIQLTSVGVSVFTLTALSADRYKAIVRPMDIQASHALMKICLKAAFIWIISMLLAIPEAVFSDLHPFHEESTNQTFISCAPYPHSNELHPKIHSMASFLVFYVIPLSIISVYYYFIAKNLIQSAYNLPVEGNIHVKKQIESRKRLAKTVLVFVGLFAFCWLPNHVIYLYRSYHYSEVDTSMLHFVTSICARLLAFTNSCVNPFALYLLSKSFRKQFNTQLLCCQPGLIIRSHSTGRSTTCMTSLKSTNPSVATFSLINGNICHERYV
Experiment: Competition binding against [^125I-Tyr^4]BBN in T-47D cells
Description: Methionine was added to the purified radioligand solution to prevent re-oxidation of Met^14 to the corresponding sulfoxide and the resulting stock solution in 0.1% BSA-PBS was kept at −20 °C; aliquots thereof were used for competition binding assays (specific activity of 2.2 Ci/μmol). Samples were measured for radioactivity in an automatic well-type gamma counter (NaI(Tl)] crystal, Canberra Packard Auto-Gamma 5000 series instrument, Schwadorf, Austria).
Human ductal breast carcinoma T-47D cells endogenously expressing the GRPR were used in all biological assays [14, 22, 23]. Cells were cultured in RPMI supplemented with 10% FBS, 100 U/mL penicillin and 100 µg/mL streptomycin, and kept in a controlled humidified atmosphere containing 5% CO2 at 37 °C. Passages were performed weekly using a trypsin/EDTA (0.05%/0.02% w/v) solution.
Cells were seeded in 12-well plates 24 h in advance (0.6 × 10^6 cells per well). On the day of the experiment, cells were placed on ice and washed with chilled washing medium (2 × 1 mL, RPMI supplemented with 1% heat inactivated FBS). […] Lysates were collected, combined and counted for their radioactivity content in a γ-counter. The IC50 values were calculated adopting nonlinear regression according to a one-site model applying the PRISM^TM 2 program (GraphPad Software, San Diego, CA, USA). […]

Molecule	IC50 (live T-47D cells, 3 h incubation at 4 °C, one-site model, mean ± sd, n = 3 (n = 5 for [Tyr^4]BBN), in triplicate, read-out: IC50, displacement of [^125I-Tyr^4]BBN from GRPR-sites on T-47D cells)	IC50
[^natGa]NeoBOMB1: NeoBOMB1 metalated with ^natGa ({DOTA-p‑aminomethylaniline-diglycolic acid}-[dF]QWAVGH-{2,6‑dimethylheptan‑4‑yl amide}; also: DOTA chelating natGa(III))	2.5 ± 0.2 nM	–
CC(C)CC(CC(C)C)NC(=O)[C@H](Cc1cnc[nH]1)NC(=O)CNC(=O)[C@@H](NC(=O)[C@H](C)NC(=O)[C@H](Cc1c[nH]c2ccccc12)NC(=O)[C@H](CCC(N)=O)NC(=O)[C@@H](Cc1ccccc1)NC(=O)COCC(=O)Nc1ccc(CNC(=O)CN2CCN(CC(=O)O)CCN(CC(=O)O)CCN(CC(=O)O)CC2)cc1)C(C)C [NeoBOMB1, DOTA-p-aminomethylaniline-diglycolic acid-DPhe-Gln-Trp-Ala-Val-Gly-His-NH-CH[CH2-CH(CH3)2]2]	–	2.2 ± 0.2 nM
